Laboratory results reported in the DeepSol protein solubility set.

Experiment: soluble on expression in E. coli; label from the status in PepcDB or PDB records

Sequence	soluble on expression in E. coli
MGSDKIHHHHHHMARVAINGFGRIGRLVYRIIYERKNPDIEVVAINDLTDTKTLAHLLKYDSVHKKFPGKVEYTENSLIVDGKEIKVFAEPDPSKLPWKDLGVDFVIESTGVFRNREKAELHLQAGAKKVIITAPAKGEDITVVIGCNEDQLKPEHTIISCASCTTNSIAPIVKVLHEKFGIVSGMLTTVHSYTNDQRVLDLPHKDLRRARAAAVNIIPTTTGAAKAVALVVPEVKGKLDGMAIRVPTPDGSITDLTVLVEKETTVEEVNAVMKEATEGRLKGIIGYNDEPIVSSDIIGTTFSGIFDATITNVIGGKLVKVASWYDNEYGYSNRVVDTLELLLKM	not soluble
MAAHSIFTTTSTTNSFLYPISSSSSSPNINSSFLGVSLNVNAKFGQSLTLYAVTTPKPLTVFAATKKAVAVLKGNSNVEGVVTLSQDDDGPTTVNVRITGLAPGLHGFHLHEYGDTTNGCMSTGAHFNPNKLTHGAPGDEIRHAGDLGNIVANADGVAEVTLVDNQIPLTGPNSVVGRALVVHELEDDLGKGGHELSLTTGNAGGRLACGVVGLTPI	soluble
MGSDKIHHHHHHMTDLEHQVFTQVRAIIANEEQVIGRRGILIPLKKAIIADGDIRNVIDIVSSDPALAAHLLWRSNSAANASVSSKNRSLKDALVRLGQVNIYRYAFTFYLKERLDELPQPYKKLVYGYWALTESIATDAVDSLHHMEGVNINPDEVQTLALFSVFGEIIALTAFAYLNAESEQSFPLSIIKSLIDNQKQTLTLEAFESLGLDEELREEFMIAHNLRQTRNPDSPGLVLRRVLSMRNQLLNPL	not soluble
MIGQTNLFDDVLKQDERFVIVVQALEEKNGQLLKRTLREYPGLNHKQMNDLFTHLKELFSEESFAENQSAFSITVYTNLDYTADQIYAHVKRFRGKHDWTQTAKLEHHHHHH	soluble
MAHTSRHNEFSIGASASLWECMLNQWLGRLYQNQDAHTGLQFEARIAQRQSLVKQLHERQLDLLITTEAPKMDEFSSQLLGYFTLALYTSAPSKLKGDLNYLRLEWGPDFQQHEAGLIGADEVPILTTSSAELAQQQIAMLNGCTWLPVSWARKKGGLHTVVDSTTLSRPLYAIWLQNSDKNALIRDLLKINVLDEVY	not soluble
MSGKERNLPTHRISRFSKFASLATRVAGNVIAEGTKQIAKGNRPKAKDLLLTPQNIARLTDQLAHLRGAAMKLGQMLSMDAGDILEPELAEILARLRSNADPMPSKQLNSVMVNALGEQWKSAFLAFNFKPIASASIGQVHQAYSDAGDNLAVKVQYPGIRKSIDSDVDNVGTLLKIVGLIPESVDYKGLLEEAKKQLYDEANYEREAQFACRYHEALQGHPHFVVPKIYPEISSQSVLAMSFIQGTPIEKIANYDQETRDFVMHNLLELLFKELFEFKMVQTDPNFANYLYLEESKQIGLLDFGATREYSERFSSGYRQAFSSVVNDDEQGLNDALEQIGFFAQSIKPEQRMAILDLVKMACEPMLIDEAYDFKASGLAQKLREAGTILSMEQDYWHTPPADAIFLHRKIGGMYLLAARIGAKVNIRRLVQPYLKINSGLEHHHHHH	not soluble
MSLTAPLRAGQMNFYDEPYNPVLNLHIQPSVKDENQRSTWPIIDTSNTSTQIARAHFEKHPPNNLRKSNFFHFVIALYDRNSQPIEVERTQFAGFVEKEKEVDGQDTRNGIHYRLSLMFQNGIRSEHDLFVRLIDSSTKQAITYEGQDKNPEMCRVLLTHEVMCSRCCEKKSCGNRNETPSDPVIIDRFFLKFFLKCNQNCLKNAGNPRDMRRFQVVLCSSARIDGPLLAVSDNMFVHNNSKHGRRTKRTDASDDSEYSESAELPSSVPVIKALFPSEGWIQGGTQVVLIGENFFEGLQVAFGTASPNWGESVQLISPHAIRVTTPPKHSAGPVDVTLQYKSKTYSRGTPLRFSYITLAEPGIEYGFQRLQKLLPKYPGDPERLPKDQILKRAAELAEALYNRTSTESLSSYYHTQFDATSDYAARTHTSPRSTLPYGAGPPALSSAVYQTSYPTVNATPAANFLNTQTGFATFGAVNPFAATLQSSSRLS	not soluble
MRKIQVGVTGMTCAACSNSVEAALMNVNGVFKASVALLQNRADVVFDPNLVKEEDIKEEIEDAGFEAEILAEEW	soluble
MKLITAIVQDKDASSVANALVEHNIRATRLASAGGFLRSGNSTFLIAVKDDEVNTTIGVIKEHSKTRKQFVTPPVGLDMSIDTIGQPIEVEIGGATIIVQAIEDFQHF	not soluble
MGSDKIHHHHHHMSLVRLQDVSVRFDNTQILREAFFRLEPRDRVGLIGKNGSGKTTMLQLILDRITPESGTVTVEPGTRIGYFSQFSELNGASTITDVLDGLFSEIKAVEAELASIDTAIAGDPAGAELDRLIARQAELFEDMDRLDGWDYPRRIDKVLTTLGFSDAHRVCAIDELSGGWRNRAALAKILLEDPDVLLLDEPTNFLDVAGVEWLESWFRDFKGAAIIVSHDRKFLDAVVTRIIEVENFHLHEYPGNFGEYIVQKQFRLKSLEQQFVHESELLAFEAEGIADRREAAKAASRGLGNQLAKIKKSRTPRPVDQIVTEIYGGLHVKDVLCRVEGLGKSYGDKALFTGLGFEIRRGNRIVVLGANGSGKSTLLKVLTGEEEADAGVVSWAKGPGFVSYNRMLEELDDADTVSHAVNALPDSLAFSATRKSVNRFLAMFQFSEADLKQKIGNLSGGQKARVAMAQCLLSGASVLLLDEPTNHLDLSSTQVMERALMHFPGAVVVVSHDRFFSEKIANRYLVFGADAALPGEVEVRAA	not soluble
MVPPTINTGKNITTERAVLTLNGLQIKLHKVVGESRDDIVAKMKDLAMDDHKFPRLPGPNPVSIERKDFEKLKQNKYVVSEKTDGIRFMMFFTRVFGFKVCTIIDRAMTVYLLPFKNIPRVLFQGSIFDGELCVDIVEKKFAFVLFDAVVVSGVTVSQMDLASRFFAMKRSLKEFKNVPEDPAILRYKEWIPLEHPTIIKDHLKKANAIYHTDGLIIMSVDEPVIYGRNFNLFKLKPGTHHTIDFIIMSEDGTIGIFDPNLRKNVPVGKLDGYYNKGSIVECGFADGTWKYIQGRSDKNQANDRLTYEKTLLNIEENITIDELLDLFKWE	soluble
MKTTLIKVIAASVTALFLSMQVYASGHTAHVDEAVKHAEEAVAHGKEGHTDQLLEHAKESLTHAKAASEAGGNTHVGHGIKHLEDAIKHGEEGHVGVATKHAQEAIEHLRASEHKSH	not soluble
MIRMSVLASGSTGNATYVESDKGSILVDAGLTGKKMEELFGQIDKQIQNLNGILVTHEHSDHIKGLGVLARKYKLPIYANEKTWTAIEKKDSKIPMDQKFIFNPYETKSLAGFDIESFNVSHDAIDPQFYIFHNNYKKFTILTDTGYVSDRMKGMIQGSDAFVFESNHDVDMLRMCGYPWKTKQRILSDMGHVSNEDAGRAMTDVITGSTKRIYLSHLSQDNLEHHHHHH	not soluble
MLNIQNYSASPHPGIVAERPQTPSASEHVETAVVPSTTEHRGTDIISLSQAATKIHQAQQTLQSTPPISEENNDERTLARQQLTSSLNALAKSGVSLSAEQNENLRSAFSAPTSALFSASPMAQPRTTISDAEIWDMVSQNISAIGDSYLGVYENVVAVYTDFYQAFSDILSKMGGWLLPGKDGNTVKLDVTSLKNDLNSLVNKYNQINSNTVLFPAQSGSGVKVATEAEARQWLSELNLPNSCLKSYGSGYVVTVDLTPLQKMVQDIDGLGAPGKDSKLEMDNAKYQAWQSGFKAQEENMKTTLQTLTQKYSNANSLYDNLVKVLSSTISSSLETAKSFLQGLEHHHHHH	soluble
MDLTVEPNLHSLITSTTHKWIFVGGKGGVGKTTSSCSIAIQMALSQPNKQFLLISTDPAHNLSDAFGEKFGKDARKVTGMNNLSCMEIDPSAALKDMNDMAVSRANNNGSDGQGDDLGSLLQGGALADLTGSIPGIDEALSFMEVMKHIKRQEQGEGETFDTVIFDTAPTGHTLRFLQLPNTLSKLLEKFGEITNKLGPMLNSFMGAGNVDISGKLNELKANVETIRQQFTDPDLTTFVCVCISEFLSLYETERLIQELISYDMDVNSIIVNQLLFAENDQEHNCKRCQARWKMQKKYLDQIDELYEDFHVVKMPLCAGEIRGLNNLTKFSQFLNKEYNPITDGKVIYELEDKEGLVPRGSLEHHHHHH	soluble
